In article PMC9388692, “Nuclear import of PTPN18 inhibits breast cancer metastasis mediated by MVP and importin β2” (Cell Death & Disease, 2022):

Tests used:
[1] = molecular target: T1, His-tagged importin β2 (UniProt Q92973 1-898); assay: pull-down; GST pull-down of GST-tagged PTPN18 and its NLS mutants with His-tagged importin β2; purified proteins, in vitro; conditions: both partners purified
T1 construct: source: purified proteins
T1 sequence (looked up): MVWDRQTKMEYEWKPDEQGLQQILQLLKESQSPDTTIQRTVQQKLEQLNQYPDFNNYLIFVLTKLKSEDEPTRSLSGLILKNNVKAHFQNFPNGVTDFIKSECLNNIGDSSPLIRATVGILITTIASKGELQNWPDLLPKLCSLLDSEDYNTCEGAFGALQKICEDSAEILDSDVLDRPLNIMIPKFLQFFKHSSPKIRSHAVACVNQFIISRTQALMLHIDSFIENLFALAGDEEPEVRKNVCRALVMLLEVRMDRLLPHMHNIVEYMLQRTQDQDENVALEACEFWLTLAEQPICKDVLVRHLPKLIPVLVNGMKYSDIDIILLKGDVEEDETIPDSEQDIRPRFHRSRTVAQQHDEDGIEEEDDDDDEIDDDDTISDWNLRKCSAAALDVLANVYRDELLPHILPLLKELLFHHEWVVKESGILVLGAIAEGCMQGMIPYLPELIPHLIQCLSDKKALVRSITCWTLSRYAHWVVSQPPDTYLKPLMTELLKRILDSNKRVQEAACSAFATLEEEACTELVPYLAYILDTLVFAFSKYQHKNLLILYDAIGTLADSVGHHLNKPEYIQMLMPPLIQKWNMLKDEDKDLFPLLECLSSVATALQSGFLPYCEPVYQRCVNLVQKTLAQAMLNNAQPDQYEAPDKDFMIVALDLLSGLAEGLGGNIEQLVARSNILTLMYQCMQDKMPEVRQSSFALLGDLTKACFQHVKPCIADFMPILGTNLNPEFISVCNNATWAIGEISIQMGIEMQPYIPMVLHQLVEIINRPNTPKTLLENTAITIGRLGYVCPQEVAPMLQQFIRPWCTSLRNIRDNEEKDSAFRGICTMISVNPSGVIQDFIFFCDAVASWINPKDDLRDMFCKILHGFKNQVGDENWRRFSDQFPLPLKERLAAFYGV

[2] = molecular target: T2, His-tagged MVP (UniProt Q14764 1-893); assay: pull-down; GST pull-down with GST-tagged PTPN18 and His-tagged MVP; called a direct interaction, in vitro; conditions: both partners purified
T2 construct: MVP, His-tagged, for GST pull-down
T2 sequence (Q14764 whole entry): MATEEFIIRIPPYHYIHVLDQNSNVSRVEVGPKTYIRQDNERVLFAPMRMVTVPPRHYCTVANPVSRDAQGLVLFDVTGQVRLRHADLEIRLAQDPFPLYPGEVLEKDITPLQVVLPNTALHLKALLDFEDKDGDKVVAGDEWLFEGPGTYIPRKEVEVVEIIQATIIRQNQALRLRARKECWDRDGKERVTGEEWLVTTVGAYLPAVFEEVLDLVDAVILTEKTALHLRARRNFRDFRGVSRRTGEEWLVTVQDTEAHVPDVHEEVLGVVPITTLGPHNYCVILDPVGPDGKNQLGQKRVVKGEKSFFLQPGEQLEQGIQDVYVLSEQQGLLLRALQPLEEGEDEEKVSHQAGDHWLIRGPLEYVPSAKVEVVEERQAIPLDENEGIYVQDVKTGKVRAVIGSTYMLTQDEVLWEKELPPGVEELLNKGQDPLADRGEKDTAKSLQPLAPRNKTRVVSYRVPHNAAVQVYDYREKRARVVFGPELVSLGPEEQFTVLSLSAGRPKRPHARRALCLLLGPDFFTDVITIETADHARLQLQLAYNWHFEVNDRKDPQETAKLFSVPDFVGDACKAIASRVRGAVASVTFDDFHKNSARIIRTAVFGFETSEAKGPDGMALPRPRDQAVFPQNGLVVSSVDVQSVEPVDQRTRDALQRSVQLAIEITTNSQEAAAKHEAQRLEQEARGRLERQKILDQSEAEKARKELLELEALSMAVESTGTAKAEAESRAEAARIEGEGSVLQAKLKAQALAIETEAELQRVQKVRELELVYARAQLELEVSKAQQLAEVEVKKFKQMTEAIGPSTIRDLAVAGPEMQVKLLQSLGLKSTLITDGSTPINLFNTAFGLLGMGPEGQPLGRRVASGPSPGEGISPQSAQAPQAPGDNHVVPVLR

B1: GST-tagged PTPN18 (natural protein, UniProt Q99952 1-460, looked up)
chain: MSRSLDSARSFLERLEARGGREGAVLAGEFSDIQACSAAWKADGVCSTVAGSRPENVRKNRYKDVLPYDQTRVILSLLQEEGHSDYINGNFIRGVDGSLAYIATQGPLPHTLLDFWRLVWEFGVKVILMACREIENGRKRCERYWAQEQEPLQTGLFCITLIKEKWLNEDIMLRTLKVTFQKESRSVYQLQYMSWPDRGVPSSPDHMLAMVEEARRLQGSGPEPLCVHCSAGCGRTGVLCTVDYVRQLLLTQMIPPDFSLFDVVLKMRKQRPAAVQTEEQYRFLYHTVAQMFCSTLQNASPHYQNIKENCAPLYDDALFLRTPQALLAIPRPPGGVLRSISVPGSPGHAMADTYAVVQKRGAPAGAGSGTQTGTGTGTGARSAEEAPLYSKVTPRAQRPGAHAEDARGTLPGRVPADQSPAGSGAYEDVAGGAQTGGLGFNLRIGRPKGPRDPPAEWTRV
notes: PTPN18 wild type, GST-tagged, for GST pull-down; also called PTPN18 WT; source: purified proteins
binding result [1]: binds | binding result [2]: binds
